# From patent publication US20240279288A1, “APPLICATION OF PLANT JAZ PROTEINS AND DERIVED POLYPEPTIDES IN PREVENTION AND TREATMENT OF HUMAN AND ANIMAL TUMORS” (ANYANG INSTITUTE OF SINO-COTTON INDUSTRY INNOVATION, priority 2021, published 2024)
# Legend:
# [1] = system: breast cancer cells (MCF7); test: CCK8 cell viability detection, MCF7; type: cell-based, human
# Experimental: CCK8 cell viability detection: cell suspension was seeded in 96-well plates at a concentration of 5×10^4 cells/ml (100 μL/well). The plates were placed in the incubator for pre-culture (at 37° C., 5% CO2), and control and protein agents were added to each well 24 h after seeding. The plates were then placed in the incubator for 24 h, followed by addition of 10 μL CCK8 solution into each well and incubation of the plates in the incubator for 0.5-2 h before the absorbance measurement at 450 nm using a microplate reader.
# We constructed GhJAZ1 prokaryotic expression plasmid with His-tag to express proteins (see step 2 in Example 4), and then a GhJAZ1 protein, along with 6 His tags, which was approximately 30 KD in size was found by WB detection (A in FIG. 7). The purified GhJAZ1 protein was used to treat breast cancer cells (MCF7) and breast epithelial cells (MCF10A), and the cell viability was measured with CCK8.
# [2] = system: normal breast epithelial cells MCF10A; test: Apoptosis detection (Annexin V-FITC/PI), MCF10A; type: cell-based; settings: 0.691 μM, 24 h, vs PBS
# Experimental: Apoptosis detection: cells were collected in 1.5 EP tubes and centrifuged at 300 g for 5 min, with the supernatant discarded, followed by collecting the cells, washing with PBS and resuspending. 1×10^5 resuspended cells were taken and centrifuged at 300 g for 5 min, with the supernatant discarded. The cells were washed with PBS, resuspended by adding 500 μl of diluted 1×Annexin V Binding Buffer working solution, and then a staining solution of 5 μL of Annexin V-FITC and 5 μL of propidium iodide (PI) were added and mixed well by vortex, followed by incubation at room temperature in the dark for 15-20 min, and detection on the instrument. Specifically, the Annexin V-FITC/PI fluorescent dual staining cell apoptosis detection kit (Wuhan Pricella Life Science & Technology Co., Ltd., Cat. No.: P-CA-201) was used.
# uPAR = uPAR (Homo sapiens, UniProt Q03405); test: CO-IP experiment with uPAR; type: binding; settings: in vivo
# Experimental: Steps of method of CO-IP experiment: Non-denaturing lysate was added to 293T cell culture plate (Pricella, Cat. No.: CL-0005), and the cells were completely lysed at 4° C. The lysate was centrifuged at 12,000 rpm for 10 min and the supernatant was collected. The corresponding antibody was added to the obtained non-denatured protein solution, which was incubated overnight at 4° C. Pierce™ protein A/G magnetic agarose (Thermo Fisher Scientific, Inc.) were washed with lysis buffer, followed by addition pre-treated beads to the cell lysate, and incubation at room temperature for 2 hours. […] The band of interest was detected by Western blotting.
# In order to explore how GhJAZ1 enters cancer cells, we cloned the genes of most tumor surface receptors, including uPAR (NCBI database accession number of NM_002659.4), CCK1R (NP_000721.1), CCK2R (NP_001350481.1), HER2 (NP_004439.2), GRPR (NP_005305.1), MUC1 (NP_001358649.1), VEGFR1 (NP_002010.2), Insulin receptor (NM_000208.4), NTR (XM_011528827.2), PSMA (XM_017017432.1), TFR1 (NM_001128148.3), TFR2 (NM_003227.4), PEPT1 (NM_005073.4), APN (NM_001150.3). […] We detected the interaction of GhJAZ1 with uPA (as the ligand of uPAR, NCBI database accession number of NP_002649.2) and uPAR by yeast two hybrid (the steps of the experiment as Example 3). […]
# Chain of uPAR (Q03405 23-305): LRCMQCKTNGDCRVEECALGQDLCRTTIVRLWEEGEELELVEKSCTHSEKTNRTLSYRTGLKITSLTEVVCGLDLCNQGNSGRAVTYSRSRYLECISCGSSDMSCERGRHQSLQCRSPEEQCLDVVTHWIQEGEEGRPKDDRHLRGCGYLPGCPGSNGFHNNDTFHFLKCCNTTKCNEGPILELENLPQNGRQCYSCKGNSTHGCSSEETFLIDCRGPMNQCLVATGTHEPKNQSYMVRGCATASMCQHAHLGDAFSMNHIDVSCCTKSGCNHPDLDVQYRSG
molecule,measurement,setting,value
"GhJAZ1: cotton JAZ1 protein, gene number Gh_A05G0260, sequence SEQ ID No. 4; prokaryotically expressed with His tag, about 30 KD (protein, His tag, prokaryotically expressed with His tag, about 30 KD) MSSCSESTAMKPARSPEKPSFAQTCNLLSQYLKEKGSFGDLSLGMTCNVEANGTPVVPPPTMNLFPLNDKSDDVCGRNGGNPKNLTSMDLFPQQAGLASKDDSPNKLEPQTAPMTIFYGGQVIVFNDFPANKAKEIMLLASNSSSQSNNSFNPIPFTSSIARSPIESSIGVPPTSKPVHPAQRAVPGDLPIARRASLHRFLEKRKDRITAKAPYQINNSAAAPSLSGDNKSWLGLAAQSP",IC50,"[1]; CCK8, 24 h treatment, read-out: IC50, inhibition of MCF7 cells",691 nM
same,viability of MCF7 cells,[1]; with the increase of GhJAZ1 protein concentration,decreased significantly
same,effect on apoptosis of normal cells (MCF10A),[2],no significant effect
same,interaction with uPAR,uPAR,interacts
